# Measurements as given in patent US20050069541A1, “Composition for and treatment of demyelinating diseases and paralysis by administration of remyelinating agents” (priority 2003, published 2005).
# B1: TY21.6 (antibody, V domains shown)
# VH: EVQLQQSGAELVKPGASVKLSCTASGFNIKDTYIHCVKQRPEQGLEWIGRIDPANGYTKYDPKFQGKATITADTSSNTAYLQLSSLTSEDTAVYFCAREGYYGNYGVYAMDYWGQGTSVTVSS
# VL: DIQMTQSPSSLSASLGGKVTITCKTSQDINKYMAWYQHKPGKRPRLLIHYTSALQPGIPSRFSGSGSGRDYSFNISNLEPEDIATYYCLQYDNLWTFGGGTKLEIK
# Assays:
# α4 integrin = α4 integrin (Homo sapiens, UniProt P05556+P13612); experiment: Inhibition of cell adhesion to VCAM; assay type: cell-based, human and guinea pig; conditions: 100% serum; read-out: IC50 for inhibition of cell adhesion to high density VCAM-1 in the presence of 100% serum
# [1] = system: brain and spinal cord of EAE guinea pigs; experiment: Chronic EAE: histology and blinded pathological scoring of brain and spinal cord sections (H-E, SCR); assay type: in vivo, guinea pig; conditions: versus saline; listed as N-[N-(3-pyridinesulfonyl)-L-3,3-dimethyl-4-thiaprolyl]-O-[1-methylpiperzain-4-yl
# Protocol: Animal Sacrifice and Histological Analysis. Untreated, chronic EAE animals (n=5) were sacrificed on day 40, as well as non-EAE controls (n=5). Following each 10-day treatment interval, 5 animals from each group were sacrificed (0.25 mL sodium pentobarbital), blood samples were collected for FACS analysis (see below), and the brain and spinal cord dissected and sectioned. Three spinal sections were used, corresponding to lumbar, thoracic and cervical regions of the cord. The brain was cut into five transverse sections. The first three proximal sections were combined in one block, and the last two distal sections in another. Tissues were fixed in 10% formalin and embedded in paraffin. […] sections were stained with hematoxylin-eosin (H-E) or solochrome-R-cyanlin (SCR) and evaluated by a blinded observer in each of four categories: (1) meningeal inflammation, (2) perivascular infiltration, (3) encephalitis or (4) myelitis and demyelination (Table 6). The combined pathological score represents the total score (out of a potential 20) from all 5 CNS sections in each animal.
# [2] = system: infiltrating cells in spinal cord; experiment: Chronic EAE: mean cell counts in spinal cord (H-E sections, 0.12 mm^2 fields); assay type: in vivo, guinea pig; conditions: listed as N-[N-(3-pyridinesulfonyl)-L-3,3-dimethyl-4-thiaprolyl]-O-[1-methylpiperzain-4-yl
# Protocol: To quantify the abnormalities observed in the spinal cord, sections stained with H-E were divided into 12 representative pie-shaped areas. In each area, the number of cells within a 0.12 mm^2 field of view was counted using Sigma Scan Pro image analysis software (SPSS Inc.), and the combined mean number of cells in all 12 areas was calculated for the whole spinal cord (36 fields of view per animal). Note that as all cell nuclei were counted, the number of cells may include neurons and glial cells in addition to infiltrates.
# IL-2, IL-10, MCP-1 RNA = experiment: Chronic EAE: quantitative RT-PCR of spinal cord; assay type: in vivo, guinea pig; conditions: 10 days after withdrawal; listed as N-[N-(3-pyridinesulfonyl)-L-3,3-dimethyl-4-thiaprolyl]-O-[1-methylpiperzain-4-yl
# Protocol: Quantitative Reverse Transcription-PCR: IL-2, IL-10, MCP-1. RNA was isolated from 30 mg of frozen guinea pig spinal cord using the S.N.A.P.™ (simple nucleic acid preparation) total RNA Isolation Kit (Invitrogen) according to manufacturer's instructions, modified to include a second DNAse treatment step followed by an additional purification over the S.N.A.P. column.
# Primer/probe sequences and concentrations for IL-2, IL-10, and MCP-1 are given in Table 7, as well as the standard RNA used for each gene. RT-PCR was carried out in triplicate using the ABI PRISM® 7700 Sequence Detection System. 50 μl reactions contained 10 to 800 ng of total RNA and primers and probes at the concentrations indicated above in reaction buffer consisting of 6.67% glycerol (Amresco); 5.5 mM MgCl; 300 μM DATP, dCTP, dGTP, and dUTP; 100 nM probe; 1.25 unit of AmpliTaq Gold® DNA Polymerase (Applied Biosystems); 1× TaqMan® Buffer A (TaqMan® PCR Core reagents kit, Applied Biosystems), 20 units of RNase Inhibitor (Roche); 1.25 unit of murine leukemia virus (MuLV) Reverse Transcriptase (Applied Biosystems). Reverse-transcription of RNA was carried out at 48° C. for 30 min., followed by a 10 min. denaturing step at 95° C. PCR was carried out by 40 thermo-cycles consisting of 95° C. for 15 seconds followed by 60° C. for 1 minute. Each plate included a standard curve using the standard RNA listed in Table 7 and two additional control samples: 1) a positive control RNA sample used on all plates, 2) a non-template control (NTC).
# The correlation coefficients of the standard curves were greater than 0.990 for all data shown. The coefficients of variation for sample triplicates were less than 0.2. Since the RNA used for the standard curve is a heterogeneous mix of RNA containing a constant but unknown amount of the target message, the numbers calculated are relative.
# [3] = system: spinal cord lesions of paralyzed EAE guinea pigs; experiment: Example 2: spontaneous remyelination in chronic EAE (SCR, toluidine blue, EM, lesion area analysis, motor function); assay type: in vivo, guinea pig
# [4] = system: EAE in female Hartley guinea pigs; conditions: listed as N-[N-(3-pyridinesulfonyl)-L-3,3-dimethyl-4-thiaprolyl]-O-[1-methylpiperzain-4-yl
# [5] = molecular target: β1 integrin (human) (human) (UniProt P05556)
# [6] = molecular target: β1 integrin (human) (human) (UniProt P05556); remark: listed apart in the source
# [7] = molecular target: α6 integrin (human) (human) (UniProt P23229)
# [8] = molecular target: α4 integrin (human) (human) (UniProt P13612)
# [9] = molecular target: α4 integrin (human) (human) (UniProt P13612); remark: listed apart in the source
# [10] = molecular target: α4 integrin (human) (human) (UniProt P13612); remark: listed apart in the source
# [11] = molecular target: α4 integrin (human) (human) (UniProt P13612); remark: listed apart in the source
# [12] = molecular target: α4 integrin (human) (human) (UniProt P13612); remark: listed apart in the source
# Mac-1 (human) (human) = Mac-1 (human) (human) (UniProt P11215)
# [13] = molecular target: L-selectin (mouse) (mouse) (UniProt P18337)
# CD45 (rat) (rat) = CD45 (rat) (rat) (UniProt P04157)
# Thy 1.1 (rat) (rat) = Thy 1.1 (rat) (rat) (UniProt P01830)
# CD2 (rat) (rat) = CD2 (rat) (rat) (UniProt P08921)
# CD4 (rat) (rat) = CD4 (rat) (rat) (UniProt P05540)
# [14] = molecular target: monocyte/T cell surface antigen (rat) (rat)
# [15] = molecular target: α4 integrin (mouse) (mouse) (UniProt Q00651)
# [16] = molecular target: β2 integrin (human) (human) (UniProt P05107)
# [17] = molecular target: α4 integrin (human) (human) (UniProt P13612); remark: listed apart in the source
# VLA-4 = molecular target: T1, VLA-4 (Homo sapiens, UniProt P05556+P13612); conditions: cited from earlier work
# T1 construct: endogenous in cells; host or cells: Jurkat cells
# human lymphocytes = conditions: cited from earlier work
molecule,measurement,setting,value
Cc1ccc(S(=O)(=O)N2CCC[C@H]2C(=O)N[C@@H](Cc2ccc(OC(=O)N3CCN(CCO)CC3)cc2)C(=O)OC(C)(C)C)cc1,melting point,,158 to 160 °C
"CC(C)OC(=O)[C@H](Cc1ccc(OC(=O)N2CCN(C)CC2)cc1)NC(=O)[C@H]1N(S(=O)(=O)c2cccnc2)CSC1(C)C [Example 381, N-[N-(3-pyridinesulfonyl)-L-3,3-dimethyl-4-thiaprolyl]-O-[1-methylpiperazin-4-ylcarbonyl]-L-tyrosine isopropyl ester]",IC50,α4 integrin,1 to 10 nM
same,spinal cord histology after 20 days of treatment (day 60),[1],much smaller area of demyelination
same,spinal cord histology after 40 days of treatment (day 80),[1],almost no meningeal and perivascular inflammation
same,cell number in spinal cord versus saline-treated animals,"[2]; after 10, 20, 30 or 40 days, p<0.001 two-way ANOVA",fewer cells
same,mean cell count after removal of compound for 10 days versus continuous treatment,[2]; p<0.05,significantly increased
same,cytokine RNA after withdrawal of compound,"IL-2, IL-10, MCP-1 RNA",rose to levels comparable to those in saline-treated animals
same,SCR-stained spinal cord lesions after 20 days of treatment,"[3]; 20 days, listed as N-[N-(3-pyridinesulfonyl)-L-3,3-dimethyl-4-thiaprolyl]-O-[1-methylpiperzain-4-yl",lesions with a diffuse blue stain covering the plaque
same,SCR-stained spinal cord lesions after 40 days of treatment,"[3]; 40 days, listed as N-[N-(3-pyridinesulfonyl)-L-3,3-dimethyl-4-thiaprolyl]-O-[1-methylpiperzain-4-yl",majority of lesions showed clear myelin pallor
same,percentage of remyelination (mean percent of lesion area with myelin pallor),"[3]; after 20, 30 or 40 days of therapy",50%
same,semithin and EM sections of lesions,"[3]; day 30 of treatment, listed as N-[N-(3-pyridinesulfonyl)-L-3,3-dimethyl-4-thiaprolyl]-O-[1-methylpiperzain-4-yl",multiple layers of thin myelin wrappings around large diameter axons indicative of remyelination
same,incidence of remyelination (lesions with myelin pallor) versus saline,[3]; time-dependent,increased the incidence of remyelination
same,"mean clinical score day 70-80 after withdrawal (30 days treatment, 10 days off) versus continuous treatment","[4]; n=5, p<0.05 Mann Whitney",significantly higher
same,escape from treatment,[4]; up to 40 days of treatment,no escape from treatment
same,adverse side effects during prolonged administration,"[4]; up to 40 days, 30 mg/kg 2x/day s.c., guinea pig, 30 mg/kg",no adverse side effects
AIIB2 (antibody),Relative Binding to EAE Vessels (% of control),[5],8 % of control
same,"Relative Binding to EAE Vessels (% of Control), human lymphocytes",[6],7 % of Control
GoH3 (antibody),Relative Binding to EAE Vessels (% of control),[7],88 % of control
HP1/7 (antibody),Relative Binding to EAE Vessels (% of control),[8],338 % of control
HP2/1 (antibody),Relative Binding to EAE Vessels (% of control),[8],3 % of control
same,"Relative Binding to EAE Vessels (% of Control), human lymphocytes",[9],0 % of Control
same,"Relative Binding to EAE Vessels (% of Control), rat lymphocytes",α4 integrin (rat) (rat),18 % of Control
same,% Input Binding Jurkat to TNFα-stimulated rat brain EC clone,[10],6 % input
same,% Input Binding Ramos to VCAM-1 transfected L cells,[11],0 % input
same,Jurkat binding to FN-coated plate (% inhibition),[12],47 % inhibition
LM2/1 (antibody),Relative Binding to EAE Vessels (% of control),Mac-1 (human) (human),107 % of control
MEL-14 (antibody),"Relative Binding to EAE Vessels (% of Control), mouse lymphocytes",[13],92 % of Control
OX-1 (antibody),"Relative Binding to EAE Vessels (% of Control), rat lymphocytes",CD45 (rat) (rat),90 % of Control
OX-7 (antibody),"Relative Binding to EAE Vessels (% of Control), rat lymphocytes",Thy 1.1 (rat) (rat),87 % of Control
OX-34 (antibody),"Relative Binding to EAE Vessels (% of Control), rat lymphocytes",CD2 (rat) (rat),100 % of Control
OX-35 (antibody),"Relative Binding to EAE Vessels (% of Control), rat lymphocytes",CD4 (rat) (rat),107 % of Control
OX-44 (antibody),"Relative Binding to EAE Vessels (% of Control), rat lymphocytes",[14],102 % of Control
OX-52 (antibody),"Relative Binding to EAE Vessels (% of Control), rat lymphocytes",LFA-1 (rat) (rat),87 % of Control
P4G9 (antibody),Relative Binding to EAE Vessels (% of control),[8],151 % of control
R1-2 (antibody),"Relative Binding to EAE Vessels (% of Control), mouse lymphocytes",[15],43 % of Control
TS1/18 (antibody),Relative Binding to EAE Vessels (% of control),[16],98 % of control
B1,% Input Binding Jurkat to TNFα-stimulated rat brain EC clone,[10],8 % input
same,% Input Binding Ramos to VCAM-1 transfected L cells,[11],1 % input
same,Binding of U937 cells to inflamed vessels in sections of EAE brain,[17],0
same,Jurkat binding to FN-coated plate (% inhibition),[12],45 % inhibition
same,binding affinity for VLA-4,VLA-4,about 10^9 M^−1
same,human lymphocyte binding to TNF-stimulated rat brain cell cultures,human lymphocytes,inhibit human lymphocyte binding
